Here are results for 8 molecules from patent publication US20220119451A1 (published 2022).

Positions of bridges follow the written chain, without caps; N, C: chain ends. No end group written: not given here.

Test [1] has as its target mouse PD-L1 protein (G&P Biosciences, cat #FCL3502B) (mouse) (UniProt Q9EP73). Briefly: ELISA, blocking of mouse PD-1 binding to mouse PD-L1 protein, 10 µM.
For test [2], the target named is T1, recombinant human PD-L1 extracellular domain (ECD) protein (cat #FCL0784B, G&P Biosciences) (human, UniProt Q9NZQ7 19-238).
T1 construct: extracellular domain; Bought protein; also called hPD-L1 protein; human PD-L1 protein
T1 sequence (Q9NZQ7 19-238): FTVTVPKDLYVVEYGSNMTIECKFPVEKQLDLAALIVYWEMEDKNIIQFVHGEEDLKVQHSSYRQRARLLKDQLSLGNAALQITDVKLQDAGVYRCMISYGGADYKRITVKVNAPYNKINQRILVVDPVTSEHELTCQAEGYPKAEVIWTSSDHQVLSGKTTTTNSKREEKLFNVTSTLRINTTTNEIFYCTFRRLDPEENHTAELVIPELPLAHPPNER
Nature of the test: SPR, PD-L1 immobilised. Here is the method: (§1) Evaluation of Binding Kinetics and Affinity By Surface Plasmon Resonance (SPR). […] PD-L1 protein was diluted to 10 μg/mL with sodium acetate buffer (pH 5.0, GE Healthcare, PA) and covalently coated onto a CM5 sensor chip (CM Dextran Sensor Chip, Biosensing Instrument) using the standard Amine Coupling Kit (GE Healthcare, PA). Approximately 6500 RU of PD-L1 protein were immobilized onto the chip. A second channel was used as a reference. HBS-EP+ buffer (GE Healthcare) was employed at a flow rate of 60 μL/min. […] The CM5 sensor chip was regenerated with 10 mM NaOH for 20 seconds. The results were analyzed using the software of Bi data analysis software.

For test [3], the target named is T2, mouse PD-L1 (Acro Biosystems, cat #PD1-M5220) (mouse, UniProt Q9EP73 19-238).
T2 construct: Bought protein; construct not described; also called mPD-L1
T2 sequence (Q9EP73 19-238 limits assumed): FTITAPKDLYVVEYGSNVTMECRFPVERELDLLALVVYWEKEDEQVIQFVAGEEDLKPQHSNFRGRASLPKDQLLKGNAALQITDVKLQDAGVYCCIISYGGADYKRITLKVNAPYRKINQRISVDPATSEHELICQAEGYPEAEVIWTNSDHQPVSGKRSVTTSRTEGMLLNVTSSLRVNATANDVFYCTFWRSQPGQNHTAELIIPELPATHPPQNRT
Briefly: ELISA, blocking of biotinylated mouse PD-1 binding to coated mouse PD-L1. On the procedure:
(§2) Unbound protein was removed by washing twice with PBS (pH 7.2-7.4), 2% BSA was added for 1.5 h at 37° C. to block the plate. Specific concentrations of the peptides were dispensed into the appropriate wells and incubated for 2 h at 37° C. […] This was followed by the addition of streptavidin-HRP and chromogenic substrate (R&D systems). The color reaction was terminated with 2N H₂SO₄, absorbance was recorded at OD450 and referenced to OD540.
(§3) In this Example, various properties of the peptides of SEQ ID NO:5, SEQ ID NO:6 and SEQ ID NO:7 were evaluated. The procedures for generating these values are described above in the beginning of the Examples section.

Test [4] has as its target T1, recombinant human PD-L1 extracellular …. Nature of the test: PD1/PD-L1 blocking assay of Table 5 (format not stated), 10 µM.
Test [5] concerns the target T3, recombinant human PD-L1 protein (Acro Biosystems, cat #EP-101 assay pair) (human, UniProt Q9NZQ7 19-238).
T3 construct: Bought protein; construct not described; also called hPD-L1; human PD-L1 (AcroBiosystems, cat #EP-101)
Briefly: competitive SPR, peptide preincubated with human PD-L1, injected over immobilised PD-1. Here is the method: BI-4500A SPR and a CM-5 sensor chip pre-functionalized with streptavidin (Biosensing Instrument Inc., Tempe, Ariz.) were employed for the SPR analysis. […] Data was analyzed with SPR Data Analysis Version 3.8.4 (Biosensing Instrument Inc., Tempe, Ariz.).
as §3

The target in test [6] is T3, recombinant human PD-L1 protein (Acro …). Briefly: ELISA, blocking of biotinylated human PD-1 binding to coated human PD-L1, 10 µM. On the procedure: as §2, §3
The target in test [7] is T1, recombinant human PD-L1 extracellular …. Briefly: PD1/PD-L1 blocking assay of Table 5 (format not stated).
Test [8] deals with T3, recombinant human PD-L1 protein (Acro …). Nature of the test: ELISA, blocking of biotinylated human PD-1 binding to coated human PD-L1. On the procedure: as §2
Test [9] deals with T4, bovine serum albumin (bovine, UniProt P02769 25-607).
T4 construct: Specificity control in SPR; also called BSA
T4 sequence (P02769 25-607 limits assumed): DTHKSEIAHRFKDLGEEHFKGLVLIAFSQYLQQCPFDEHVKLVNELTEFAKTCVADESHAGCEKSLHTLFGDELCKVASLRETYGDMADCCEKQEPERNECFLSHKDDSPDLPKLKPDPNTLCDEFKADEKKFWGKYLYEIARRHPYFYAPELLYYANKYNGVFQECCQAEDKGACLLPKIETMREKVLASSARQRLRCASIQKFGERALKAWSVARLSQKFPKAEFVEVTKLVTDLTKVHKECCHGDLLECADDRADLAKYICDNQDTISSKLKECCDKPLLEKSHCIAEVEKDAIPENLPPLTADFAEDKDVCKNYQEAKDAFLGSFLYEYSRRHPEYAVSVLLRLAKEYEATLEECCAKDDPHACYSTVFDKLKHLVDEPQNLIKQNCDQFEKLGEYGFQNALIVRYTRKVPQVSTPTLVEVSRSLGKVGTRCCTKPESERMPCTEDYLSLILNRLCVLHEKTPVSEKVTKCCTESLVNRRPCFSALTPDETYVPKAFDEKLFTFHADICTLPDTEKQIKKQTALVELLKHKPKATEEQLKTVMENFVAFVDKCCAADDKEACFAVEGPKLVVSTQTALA
Nature of the test: SPR, BSA immobilised.

For test [10], the target named is T1, recombinant human PD-L1 extracellular …. Briefly: SPR, human PD-L1 ECD immobilised on CM5 chip. Here is the method: as §1
The PD-L1 protein was immobilized on a CM5 golden chip by the direct amine coupling method. […] In a recent study, scientists constructed several chimeric antigen receptor (CAR) T cells with different affinities to ICAM-1.

Test [11] concerns the target T5, mouse PD-L1 protein (G&P Biosciences, cat #FCL3502B) (mouse, UniProt Q9EP73 19-239, limits assumed).
T5 construct: Bought protein; construct not described; also called mPD-L1 protein
Briefly: ELISA, blocking of mouse PD-1 binding to coated mouse PD-L1 protein. Here is the method:
(§4) Various concentrations of peptides were loaded into the wells and incubated for 1 hour at room temperature. […] Streptavidin-HRP (R&D systems) and chromogenic substrate were added into the wells. OD₄₅₀ was then recorded and referenced to OD₅₄₀.

The target of test [12] is T1, recombinant human PD-L1 extracellular …. Briefly: ELISA, blocking of PD-1 binding to coated human PD-L1 protein. On the procedure: as §4
The target in test [13] is T6, mouse PD-L1 on 4T1 cancer cells (mouse, UniProt Q9EP73 19-290).
T6 construct: whole, on cells; also called mouse cancer cell line 4T1
T6 sequence (Q9EP73 19-290): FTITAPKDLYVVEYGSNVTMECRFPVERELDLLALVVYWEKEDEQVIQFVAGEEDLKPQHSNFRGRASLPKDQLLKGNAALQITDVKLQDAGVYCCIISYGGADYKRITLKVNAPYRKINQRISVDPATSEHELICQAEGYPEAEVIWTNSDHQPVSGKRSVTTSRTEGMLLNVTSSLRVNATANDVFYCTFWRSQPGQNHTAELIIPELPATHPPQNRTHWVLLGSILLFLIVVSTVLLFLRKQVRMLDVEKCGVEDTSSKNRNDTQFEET
Nature of the test: blocking of mouse PD-1 binding to 4T1 cells.

Test [14] addresses T7, human PD-L1 on DU-145 cancer cells (human, UniProt Q9NZQ7 19-290).
T7 construct: whole, on cells; Endogenous PD-L1 of a PD-L1-positive human cancer cell line
Briefly: blocking of PD-1 binding to DU-145 cells.

In test [15] the target is T4, bovine serum albumin. Nature of the test: SPR, albumin (BSA) immobilised, peptide series injected. Here is the method:
as §1
Nonspecific binding of the peptides against bovine serum albumin (BSA) using SPR was measured. […] MCF-7 human cancer cells are PD-L1 deficient and used as a negative control in this study. […] Results are represented as the mean±SD (n=3).

For test [16], the target named is T1, recombinant human PD-L1 extracellular …. Briefly: blocking of the human CD80/PD-L1 interaction, 10 µM.
For test [17] the target is unchanged. Nature of the test: blocking of the human CD80/PD-L1 interaction.
For test [18], the target named is T5, mouse PD-L1 protein (G&P Biosciences, …). Nature of the test: blocking of the mouse PD-1/PD-L1 interaction (text value, differs from Table 3); text of paragraph 79, not Table 3. On the procedure:
as §4

T5 sequence (Q9EP73 19-239 limits assumed): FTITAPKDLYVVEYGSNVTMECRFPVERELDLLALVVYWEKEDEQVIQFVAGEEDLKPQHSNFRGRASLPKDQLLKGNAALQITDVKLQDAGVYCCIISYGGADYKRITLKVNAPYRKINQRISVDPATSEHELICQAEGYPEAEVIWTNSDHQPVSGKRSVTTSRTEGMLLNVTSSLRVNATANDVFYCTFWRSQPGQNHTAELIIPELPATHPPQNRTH
T3 sequence (Q9NZQ7 19-238 limits assumed): as the sequence (Q9NZQ7 19-238) above
T7 sequence (Q9NZQ7 19-290): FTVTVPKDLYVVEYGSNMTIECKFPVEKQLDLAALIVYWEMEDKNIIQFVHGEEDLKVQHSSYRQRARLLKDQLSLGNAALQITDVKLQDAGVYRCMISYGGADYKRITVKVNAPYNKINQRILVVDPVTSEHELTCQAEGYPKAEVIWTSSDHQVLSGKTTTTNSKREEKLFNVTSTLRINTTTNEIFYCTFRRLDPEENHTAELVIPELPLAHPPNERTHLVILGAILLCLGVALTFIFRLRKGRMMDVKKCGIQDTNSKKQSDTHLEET
mouse PD-L1 protein (G&P Biosciences, cat #FCL3502B) (mouse), sequence (Q9EP73 19-239 limits assumed): as the sequence (Q9EP73 19-239 limits assumed) above

“anti-mouse PD-L1 antibody (BioXcell, 10F.9G2)” returned a blocking efficiency at 10 µM in test [1] of 92%.

Take CHRSYYTWNLNC (disulfide 1-12, Cyclic variant of CLP002) [CLP2C14]: the Kd in test [2] worked out at 2.78 nM; in the test with bovine serum albumin [9], 408 nM. Also, the IC50 in test [3] is 550 nM; in test [5], 119 nM; in [7] it was 5 nM; in test [8], 180 nM. Further, in test [4], the “% Blocking efficiency at 10 µM” value was 75%. Moreover, in test [6], the “% Blocking efficiency at 10 µM (ELISA) hPD-L1” value amounted to 75%.

Take WHRSYYTWNLNT (not fully specified, 12-mer from phage display) [CLP002 peptide]: in test [10], the Kd was 366 nM. Moreover, the dissociation rate constant (koff) in [10] amounted to 0.00145 s⁻¹. In addition, the kon in test [10] came to 4520 M⁻¹ s⁻¹. The “Blocking Efficiency (%)” value amounted to 68% in test [11], 85% in test [12], 61% in [13] and 80% in test [14]. Further, the IC50 in test [11] is 1910 nM; in [12], 2170 nM; in test [13] it was 2440 nM; in test [14], 1430 nM; in [17], 2450 nM; in test [18], 1510 nM. In addition, the binding result with bovine serum albumin [15] is listed as “no binding”. In [16], the “blocking efficiency at 10 µM” value is approximately 48%.

As for WHFSYNWRWLPP (not fully specified, 12-mer from phage display) [CLP003 peptide], the Kd in test [10] is 117 nM. The koff in test [10] was 0.00162 s⁻¹. Further, the kon in test [10] was 22600 M⁻¹ s⁻¹. Moreover, the “Blocking Efficiency (%)” value in [11] worked out at 46%; in test [12] it was 60%; in test [13], 50%; in [14], 56%. The IC50 in test [11] was found to be 2260 nM; in [12], 2220 nM; in test [13] it was 1000 nM; in test [14], 3050 nM; in test [17], 1620 nM; in test [18] it was 1960 nM. For the same molecule, in the test with bovine serum albumin [15], the binding result is listed as “no binding”. For the same molecule, in [16], the “blocking efficiency at 10 µM” value was approximately 48%.

Regarding HYPFRPHANQAS (not fully specified, 12-mer from phage display) [CLP001 peptide], in test [10], the dissociation constant (Kd) was found to be 534 nM, the koff stood at 0.00281 s⁻¹ and the association rate constant (kon) turned out to be 5190 M⁻¹ s⁻¹. Further, in test [11], the “Blocking Efficiency (%)” value turned out to be 34% and the IC50 is 2430 nM. For the same molecule, in test [12], the “Blocking Efficiency (%)” value is 0%. In [13], the “Blocking Efficiency (%)” value was 35% and the IC50 stood at 910 nM. In addition, in [14], the “Blocking Efficiency (%)” value stood at 0%. Besides, in the test with bovine serum albumin [15], the binding result is “no binding”. Moreover, in test [16], the “blocking efficiency at 10 µM” value was approximately 17%.

On to DYHDPSLPTLRK (not fully specified, 12-mer from phage display) [CLP004 peptide], for which, in test [10], the Kd came to 544 nM, the koff stood at 0.00275 s⁻¹ and the kon was 5140 M⁻¹ s⁻¹. Besides, in test [11], the “Blocking Efficiency (%)” value was 48% and the IC50 worked out at 1910 nM. Besides, in test [12], the “Blocking Efficiency (%)” value turned out to be 52% and the IC50 was 1170 nM. Also, in test [13], the “Blocking Efficiency (%)” value is 34% and the IC50 amounted to 730 nM. For the same molecule, in test [14], the “Blocking Efficiency (%)” value is 60% and the half-inhibitory concentration (IC50) amounted to 200 nM. The binding result with bovine serum albumin [15] is given as “no binding”. In addition, the “blocking efficiency at 10 µM” value in test [16] is approximately 27%.

For the molecule CHRSYYCWNLNT (disulfide 1-7, Cyclic variant of CLP002) [CLP2C21], the Kd in [2] turned out to be 124 nM; with bovine serum albumin [9], 1240 nM. In addition, the concentration for half-maximal inhibition (IC50) in [3] is 460 nM; in test [5] it was 143 nM; in test [7], 6 nM; in [8], 440 nM. Moreover, in test [4], the “% Blocking efficiency at 10 µM” value worked out at 78%. The “% Blocking efficiency at 10 µM (ELISA) hPD-L1” value in test [6] was found to be 85.9%.

Consider WHRSYYTWN (Truncated form of CLP002 (9 residues)) [CLP2TR3], for which the Kd in test [2] came out at 258 nM; in the test with bovine serum albumin [9] it was 2050 nM. Also, the “% Blocking efficiency at 10 µM” value in test [4] came to 80%. For the same molecule, the “% Blocking efficiency at 10 µM (ELISA) hPD-L1” value in test [6] was 80%.
